Source: paper PMC4705663
Values belong to the substance of their own block, whether it stands above or below them.

Key:
[1] = tested on: BRPF1 PZP domain; assay: HI-FI FRET; details: 200 mM NaCl, HI-FI FRET: 25 mM Tris pH 7.5, 200 mM NaCl, 0.01% NP40 and CHAPS, EMSA: 25 mM Tris-HCl pH 7.5, 150 mM NaCl, 5 mM DTT, +/-10% glycerol, RT 30 min, NMR: 25 mM …
[2] = target: NCP165, mononucleosome assembled with unlabeled Xenopus octamer on 165 bp 601 DNA (Xenopus); assay: AUC; sedimentation velocity; unlabeled NCP165 incubated with increasing molar ratios of PZP overnight at 4°C; 20 mM Tris 7.5, 50 mM NaCl, 2 mM arginine; 20°C, 40 000 rpm; free components also run alone
[3] = target: Oregon Green 488-labeled BRPF1 PZP domain (UniProt P55201); assay: FRET or BRET; HIFI-FRET titration; Atto647N-labeled mononucleosomes titrated against three concentrations of Oregon Green labeled PZP; 25 mM Tris 7.5, 200 mM NaCl, 0.01% NP40 and CHAPS; quadratic fit; apparent Kd
[4] = target: Atto647N-labeled NCP165 (Xenopus octamer labeled at H4E63C, 165 bp 601 DNA) (Xenopus); assay: FRET or BRET; HIFI-FRET Job plot (continuous variation); Oregon Green 488-PZP donor and Atto647N-NCP165 acceptor; total concentration of reactants constant at 1 μM, 50 nM steps
[5] = target: histone H3 tail H3 tail (Homo sapiens) (UniProt P68431); details: cited from earlier work
[6] = tested on: BRPF1 PZP domain; assay: FRET; details: with LexA fixed at its S1/2 (2 uM); HI-FI FRET: 25 mM Tris pH 7.5, 200 mM NaCl, 0.01% NP40 and CHAPS; EMSA: 25 mM Tris-HCl pH 7.5, 150 mM NaCl, 5 mM DTT, +/-10% glycerol, RT 30 min; NMR: 25 mM …
[7] = tested on: LexA; assay: FRET; details: LexA titration; S1/2 of nucleosome unwrapping, 75 mM NaCl; HI-FI FRET: 25 mM Tris pH 7.5, 200 mM NaCl, 0.01% NP40 and CHAPS; EMSA: 25 mM Tris-HCl pH 7.5, 150 mM NaCl, 5 mM DTT, +/-10% glycerol, RT 30 min; NMR: 25 mM …

Substance: NCP147 (FRET)
- Kd ([1]; apparent, curve did not plateau): > 1000 nM

- stoichiometry N [2]: 2
Substance: BRPF1 PZP domain (amino acids 267–454) (from UniProt P55201 267-454) (domain or fragment)

- Kd [3]: 273 nM
Substance: Atto647N-labeled NCP165 (Xenopus octamer labeled at H4E63C, 165 bp 601 DNA) (complex)

- stoichiometry N [4]: 1.8
Substance: Oregon Green 488-labeled BRPF1 PZP domain (from UniProt P55201 267-454) (domain or fragment)

Substance: NCP165
- Kd ([1]; apparent Kd): 273 nM

Substance: BRPF1 PZP PZP (from UniProt P55201)
- Kd [5]: 12000 nM

Substance: 601L Cy3-Cy5 NCP with LexA site
- K half [6]: 4 µM
- K half [7]: 2000 nM

- Kd [3]: > 1000 nM
Substance: Atto647N-labeled NCP147 (Xenopus octamer labeled at H4E63C, 147 bp 601 DNA) (complex)
